Measured values as given in article PMC9482650, “Quantitative fragmentomics allow affinity mapping of interactomes” (Nature Communications, 2022).

T1: DFNB31_3, Q9P202
T1 sequence (Q9P202 811-907, limits assumed, looked up): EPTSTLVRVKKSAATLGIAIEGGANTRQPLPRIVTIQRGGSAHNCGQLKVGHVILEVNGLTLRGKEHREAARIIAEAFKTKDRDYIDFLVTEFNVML

T2: PDZRN3_1, Q9UPQ7
T2 sequence (Q9UPQ7 244-349, limits assumed, looked up): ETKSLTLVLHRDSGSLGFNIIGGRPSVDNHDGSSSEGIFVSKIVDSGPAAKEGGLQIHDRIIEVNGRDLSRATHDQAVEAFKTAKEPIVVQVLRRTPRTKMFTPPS

T3: GRIP1_3, Q9Y3R0
T3 sequence (Q9Y3R0 247-346, limits assumed, looked up): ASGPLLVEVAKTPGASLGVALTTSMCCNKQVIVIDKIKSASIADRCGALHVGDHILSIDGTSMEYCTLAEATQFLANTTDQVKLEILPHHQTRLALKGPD

T4: LIN7A, O14910
T4 sequence (O14910 103-200, limits assumed, looked up): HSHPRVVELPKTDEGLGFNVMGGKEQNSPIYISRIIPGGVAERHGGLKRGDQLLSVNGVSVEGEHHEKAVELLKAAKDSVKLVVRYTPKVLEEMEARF

T5: RHPN1, Q8TCX5
T5 sequence (Q8TCX5 508-602, limits assumed, looked up): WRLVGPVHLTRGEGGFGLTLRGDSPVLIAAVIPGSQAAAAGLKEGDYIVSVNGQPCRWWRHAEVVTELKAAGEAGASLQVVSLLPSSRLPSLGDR

T6: DVL3, Q92997
T6 sequence (Q92997 244-331, limits assumed, looked up): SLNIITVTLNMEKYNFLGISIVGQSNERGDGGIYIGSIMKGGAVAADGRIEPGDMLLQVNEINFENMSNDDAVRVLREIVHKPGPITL

T7: GRIP1_5, Q9Y3R0
T7 sequence (Q9Y3R0 568-668, limits assumed, looked up): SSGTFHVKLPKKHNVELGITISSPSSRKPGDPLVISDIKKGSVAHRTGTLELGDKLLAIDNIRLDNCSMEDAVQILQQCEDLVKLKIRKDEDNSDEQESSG

T8: RADIL, Q96JH8
T8 sequence (Q96JH8 971-1071, limits assumed, looked up): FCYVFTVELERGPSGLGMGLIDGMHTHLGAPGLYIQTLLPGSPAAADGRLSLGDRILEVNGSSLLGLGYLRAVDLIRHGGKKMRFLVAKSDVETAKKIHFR

T9: GRIP1_2, Q9Y3R0
T9 sequence (Q9Y3R0 145-248, limits assumed, looked up): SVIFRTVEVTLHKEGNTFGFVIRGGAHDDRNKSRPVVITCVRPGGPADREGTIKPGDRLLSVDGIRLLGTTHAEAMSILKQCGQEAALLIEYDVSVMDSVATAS

T10: RAPGEF6, Q8TEU7
T10 sequence (Q8TEU7 525-625, limits assumed, looked up): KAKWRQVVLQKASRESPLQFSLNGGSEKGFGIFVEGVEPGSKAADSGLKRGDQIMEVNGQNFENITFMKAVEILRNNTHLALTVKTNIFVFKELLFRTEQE

B1: RNF146, Q9NTX7 (peptide)
chain: PDGQCTVTEV
B2: RASL11B, Q9BPW5 (peptide)
chain: SAKVRTVTSV

Assays:
Test in all cases: holdup assay
Design in all cases: key: below the threshold = too weak to quantify, mostly under pKd 3.1 to 4
Conditions in all cases: plain residues with an end cap or a label only (N-terminal biotin on a linker: ado-ado)
DFNB31_3, Q9P202 = target: T1, DFNB31_3, Q9P202
PDZRN3_1, Q9UPQ7 = target: T2, PDZRN3_1, Q9UPQ7
GRIP1_3, Q9Y3R0 = target: T3, GRIP1_3, Q9Y3R0
LNX1_1, Q8TBB1 = target: LNX1_1, Q8TBB1
Chain of LNX1_1, Q8TBB1 (Q8TBB1 261-371): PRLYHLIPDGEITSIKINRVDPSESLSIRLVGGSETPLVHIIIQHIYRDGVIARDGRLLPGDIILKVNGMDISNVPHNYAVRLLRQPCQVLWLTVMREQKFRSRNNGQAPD

DLG4_3, P78352 = target: DLG4_3, P78352
Chain of DLG4_3, P78352 (P78352 306-403): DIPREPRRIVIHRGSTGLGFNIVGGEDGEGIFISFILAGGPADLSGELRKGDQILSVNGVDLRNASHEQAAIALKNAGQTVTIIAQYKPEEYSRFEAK

MAGI1_1, Q96QZ7 = target: MAGI1_1, Q96QZ7
Chain of MAGI1_1, Q96QZ7 (Q96QZ7 1-106): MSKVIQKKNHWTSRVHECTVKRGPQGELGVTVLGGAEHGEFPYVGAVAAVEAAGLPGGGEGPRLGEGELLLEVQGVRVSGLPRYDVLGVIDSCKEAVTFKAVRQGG

LIN7A, O14910 = target: T4, LIN7A, O14910
RHPN1, Q8TCX5 = target: T5, RHPN1, Q8TCX5
PDZRN4_1, Q6ZMN7 = target: PDZRN4_1, Q6ZMN7
Chain of PDZRN4_1, Q6ZMN7 (Q6ZMN7 213-318): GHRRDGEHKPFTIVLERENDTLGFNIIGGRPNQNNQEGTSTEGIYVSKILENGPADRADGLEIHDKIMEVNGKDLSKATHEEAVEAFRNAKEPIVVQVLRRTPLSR

DVL3, Q92997 = target: T6, DVL3, Q92997
GRIP1_5, Q9Y3R0 = target: T7, GRIP1_5, Q9Y3R0
RADIL, Q96JH8 = target: T8, RADIL, Q96JH8
TJP2_1, Q9UDY2 = target: TJP2_1, Q9UDY2
Chain of TJP2_1, Q9UDY2 (Q9UDY2 24-128): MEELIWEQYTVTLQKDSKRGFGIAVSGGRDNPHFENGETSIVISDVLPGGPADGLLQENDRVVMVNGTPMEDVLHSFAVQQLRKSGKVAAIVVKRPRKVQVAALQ

PDLIM1, O00151 = target: PDLIM1, O00151
Chain of PDLIM1, O00151 (O00151 1-87): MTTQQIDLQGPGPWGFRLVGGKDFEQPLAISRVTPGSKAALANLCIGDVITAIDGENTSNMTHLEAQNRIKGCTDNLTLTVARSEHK

NHERF4_4, Q86UT5 = target: NHERF4_4, Q86UT5
Chain of NHERF4_4, Q86UT5 (Q86UT5 464-550): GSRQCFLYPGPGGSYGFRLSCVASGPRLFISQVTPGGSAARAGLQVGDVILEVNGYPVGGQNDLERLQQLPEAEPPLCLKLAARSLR

NHERF4_2, Q86UT5 = target: NHERF4_2, Q86UT5
Chain of NHERF4_2, Q86UT5 (Q86UT5 220-308): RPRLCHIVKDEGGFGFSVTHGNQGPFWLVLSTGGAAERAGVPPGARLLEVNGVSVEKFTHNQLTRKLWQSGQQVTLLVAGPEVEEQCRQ

GRIP1_2, Q9Y3R0 = target: T9, GRIP1_2, Q9Y3R0
GIPC2, Q8TF65 = target: GIPC2, Q8TF65
Chain of GIPC2, Q8TF65 (Q8TF65 112-203): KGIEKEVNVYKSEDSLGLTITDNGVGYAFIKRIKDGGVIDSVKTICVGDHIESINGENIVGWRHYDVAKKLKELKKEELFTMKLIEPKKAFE

MAST2, Q6P0Q8 = target: MAST2, Q6P0Q8
Chain of MAST2, Q6P0Q8 (Q6P0Q8 1099-1202): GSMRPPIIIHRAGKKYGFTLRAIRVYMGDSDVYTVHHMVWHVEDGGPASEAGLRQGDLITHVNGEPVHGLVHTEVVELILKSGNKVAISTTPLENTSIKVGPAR

GORASP2, Q9H8Y8 = target: GORASP2, Q9H8Y8
RAPGEF6, Q8TEU7 = target: T10, RAPGEF6, Q8TEU7
LNX1_3, Q8TBB1 = target: LNX1_3, Q8TBB1
Chain of LNX1_3, Q8TBB1 (Q8TBB1 500-596): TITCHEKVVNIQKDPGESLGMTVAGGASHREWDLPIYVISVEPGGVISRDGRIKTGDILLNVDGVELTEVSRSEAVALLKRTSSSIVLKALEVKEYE

DLG4_2, P78352 = target: DLG4_2, P78352
Chain of DLG4_2, P78352 (P78352 155-259): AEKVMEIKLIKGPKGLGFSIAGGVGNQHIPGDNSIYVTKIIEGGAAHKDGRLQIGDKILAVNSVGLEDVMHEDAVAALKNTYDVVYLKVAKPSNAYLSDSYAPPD

Inadl_10, Q8NI35 = target: Inadl_10, Q8NI35
Chain of Inadl_10, Q8NI35 (Q8NI35 1673-1763): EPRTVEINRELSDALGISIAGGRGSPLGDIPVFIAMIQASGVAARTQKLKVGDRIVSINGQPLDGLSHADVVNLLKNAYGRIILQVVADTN

GORASP1, Q9BQQ3 = target: GORASP1, Q9BQQ3
Chain of GORASP1, Q9BQQ3 (Q9BQQ3 1-208): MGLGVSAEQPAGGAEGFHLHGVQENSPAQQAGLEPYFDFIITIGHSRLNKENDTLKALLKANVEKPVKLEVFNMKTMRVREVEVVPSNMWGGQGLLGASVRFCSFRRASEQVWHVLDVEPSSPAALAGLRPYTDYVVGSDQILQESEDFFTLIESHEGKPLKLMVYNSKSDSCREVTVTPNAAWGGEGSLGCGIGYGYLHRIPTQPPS

SCRIB_1, Q14160 = target: SCRIB_1, Q14160
Chain of SCRIB_1, Q14160 (Q14160 718-814): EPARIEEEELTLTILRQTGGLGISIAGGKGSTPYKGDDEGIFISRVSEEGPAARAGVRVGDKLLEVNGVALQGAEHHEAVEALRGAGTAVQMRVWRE

HTRA1, Q92743 = target: HTRA1, Q92743
Chain of HTRA1, Q92743 (Q92743 360-477): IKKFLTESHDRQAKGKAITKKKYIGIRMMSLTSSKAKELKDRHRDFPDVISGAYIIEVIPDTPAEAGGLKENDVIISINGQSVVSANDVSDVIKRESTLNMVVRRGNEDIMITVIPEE

Row | pKd (DFNB31_3, Q9P202) | pKd (PDZRN3_1, Q9UPQ7) | pKd (GRIP1_3, Q9Y3R0) | pKd (LNX1_1, Q8TBB1) | pKd (DLG4_3, P78352) | pKd (MAGI1_1, Q96QZ7) | pKd (LIN7A, O14910) | pKd (RHPN1, Q8TCX5) | pKd (PDZRN4_1, Q6ZMN7) | pKd (DVL3, Q92997) | pKd (GRIP1_5, Q9Y3R0) | pKd (RADIL, Q96JH8) | pKd (TJP2_1, Q9UDY2) | pKd (PDLIM1, O00151) | pKd (NHERF4_4, Q86UT5) | pKd (NHERF4_2, Q86UT5) | pKd (GRIP1_2, Q9Y3R0) | pKd (GIPC2, Q8TF65) | pKd (MAST2, Q6P0Q8) | pKd (GORASP2, Q9H8Y8) | other results | Binder
1 | 3.99 | 3.5 | below the threshold | 4.12 | 3.5 | below the threshold | below the threshold | 4.68 | below the threshold | below the threshold | below the threshold | 4.62 | below the threshold | below the threshold | 4.02 | 3.59 | below the threshold | 3.78 | 5.28 | 4.17 | pKd (RAPGEF6, Q8TEU7): below the threshold; pKd (LNX1_3, Q8TBB1): below the threshold; pKd (DLG4_2, P78352): 5.07; pKd (Inadl_10, Q8NI35): 3.58; pKd (GORASP1, Q9BQQ3): below the threshold; pKd (SCRIB_1, Q14160): 4.68; pKd (HTRA1, Q92743): 5.05 | B1
2 | below the threshold | 3.71 | below the threshold | 4.04 | 4.93 | 3.52 | below the threshold | 3.83 | below the threshold | below the threshold | below the threshold | 3.94 | 4.14 | below the threshold | 3.91 | below the threshold | below the threshold | below the threshold | 5.3 | 4.56 | pKd (RAPGEF6, Q8TEU7): below the threshold; pKd (LNX1_3, Q8TBB1): below the threshold; pKd (DLG4_2, P78352): 5.08; pKd (Inadl_10, Q8NI35): below the threshold; pKd (GORASP1, Q9BQQ3): 3.76; pKd (SCRIB_1, Q14160): 4.17; pKd (HTRA1, Q92743): 3.95 | B2
